We go through one substance from patent publication US20210246507A1.

The assay addresses human C3b (human) (UniProt P01024). The assay can be described thus: SPR (Biacore 3000), human C3b amine-coupled to CM5 chip, FHR-4 injected at 1 to 100 µg/ml, 1:1 Langmuir fit. (In general: In SPR one partner is held on a chip, and binding of the other changes the refractive index at the surface.)
Sequence of UniProt P01024 (P01024 23-667 limits assumed, chain 1 of 2): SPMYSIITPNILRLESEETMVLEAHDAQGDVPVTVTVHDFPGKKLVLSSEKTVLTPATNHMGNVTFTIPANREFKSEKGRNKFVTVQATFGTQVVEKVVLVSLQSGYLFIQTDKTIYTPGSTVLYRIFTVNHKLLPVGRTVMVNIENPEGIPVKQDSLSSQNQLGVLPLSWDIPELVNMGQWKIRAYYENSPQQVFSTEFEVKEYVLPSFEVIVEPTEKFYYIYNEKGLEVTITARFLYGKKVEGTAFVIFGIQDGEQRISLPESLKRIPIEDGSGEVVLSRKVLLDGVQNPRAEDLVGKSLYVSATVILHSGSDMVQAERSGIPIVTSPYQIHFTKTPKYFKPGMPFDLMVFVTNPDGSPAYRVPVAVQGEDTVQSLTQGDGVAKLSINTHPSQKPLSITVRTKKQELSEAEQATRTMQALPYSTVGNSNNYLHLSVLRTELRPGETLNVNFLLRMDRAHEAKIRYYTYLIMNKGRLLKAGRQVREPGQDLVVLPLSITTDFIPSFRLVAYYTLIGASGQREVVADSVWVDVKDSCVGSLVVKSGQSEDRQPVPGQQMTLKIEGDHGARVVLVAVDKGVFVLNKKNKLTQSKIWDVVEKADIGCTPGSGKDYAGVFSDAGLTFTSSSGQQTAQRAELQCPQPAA
Sequence of UniProt P01024 (P01024 749-1663 limits assumed, chain 2 of 2): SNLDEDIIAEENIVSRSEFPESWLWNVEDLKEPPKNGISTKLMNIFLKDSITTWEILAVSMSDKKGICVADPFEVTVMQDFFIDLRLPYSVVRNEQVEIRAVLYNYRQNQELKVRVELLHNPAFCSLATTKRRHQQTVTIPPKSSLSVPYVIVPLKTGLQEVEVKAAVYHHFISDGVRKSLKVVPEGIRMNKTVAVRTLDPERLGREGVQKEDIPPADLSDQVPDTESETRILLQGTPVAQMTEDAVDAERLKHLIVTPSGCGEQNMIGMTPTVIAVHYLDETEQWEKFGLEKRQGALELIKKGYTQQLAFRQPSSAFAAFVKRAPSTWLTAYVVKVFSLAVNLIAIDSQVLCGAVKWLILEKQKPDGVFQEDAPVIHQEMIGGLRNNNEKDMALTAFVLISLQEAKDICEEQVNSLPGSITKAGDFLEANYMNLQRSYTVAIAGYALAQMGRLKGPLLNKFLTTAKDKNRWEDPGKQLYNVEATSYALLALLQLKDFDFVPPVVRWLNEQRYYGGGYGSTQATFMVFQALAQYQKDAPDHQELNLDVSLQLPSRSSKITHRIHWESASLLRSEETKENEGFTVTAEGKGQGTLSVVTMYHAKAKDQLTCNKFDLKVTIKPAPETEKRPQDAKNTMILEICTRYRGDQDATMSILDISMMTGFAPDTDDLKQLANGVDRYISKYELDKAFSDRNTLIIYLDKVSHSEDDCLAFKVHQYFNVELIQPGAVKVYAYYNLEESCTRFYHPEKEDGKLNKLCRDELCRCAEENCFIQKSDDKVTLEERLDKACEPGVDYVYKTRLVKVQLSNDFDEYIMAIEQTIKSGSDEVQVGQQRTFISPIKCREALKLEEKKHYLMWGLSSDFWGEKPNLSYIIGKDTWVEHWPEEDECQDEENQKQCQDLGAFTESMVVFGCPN

As for “complement factor H-related protein 4 (FHR-4) (from UniProt Q92496 20-578)”, the Kd (in general, the equilibrium constant for the complex coming apart) worked out at 1100 nM.
